T1: Ep-CAM on the surface of HT-29 human colorectal carcinoma cells (human, UniProt P16422 24-314)
T1 construct: The gene was obtained from HT-29 mRNA; also called epithelial cell adhesion molecule; Ep-CAM expressing HT-29 cells
T1 sequence: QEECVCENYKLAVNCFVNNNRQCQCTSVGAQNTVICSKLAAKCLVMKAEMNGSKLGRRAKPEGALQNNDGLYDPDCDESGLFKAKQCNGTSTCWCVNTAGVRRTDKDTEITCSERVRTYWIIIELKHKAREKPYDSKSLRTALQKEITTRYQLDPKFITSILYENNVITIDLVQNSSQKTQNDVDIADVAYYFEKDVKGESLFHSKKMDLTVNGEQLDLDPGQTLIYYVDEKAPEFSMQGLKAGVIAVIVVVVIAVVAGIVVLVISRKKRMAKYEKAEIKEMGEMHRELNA

T2: soluble human Ep-CAM (human, UniProt P16422 24-265)
T2 construct: It was truncated by a stop codon at amino acid position 266 and secreted from CHO-K1 cells (pING1954, Clone 51); No signal peptide limits are stated; Multimers were seen on a non-reduced gel; also called sEp-CAM; truncated Ep-CAM
T2 sequence: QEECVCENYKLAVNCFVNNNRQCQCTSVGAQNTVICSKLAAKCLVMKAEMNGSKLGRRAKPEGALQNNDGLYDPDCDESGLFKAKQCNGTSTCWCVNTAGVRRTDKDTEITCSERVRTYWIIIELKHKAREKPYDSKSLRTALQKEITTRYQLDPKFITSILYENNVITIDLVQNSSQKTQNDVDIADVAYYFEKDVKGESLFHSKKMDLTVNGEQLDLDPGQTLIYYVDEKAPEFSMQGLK


Tests used:
[1] = target: T1, Ep-CAM on the surface of HT-29 human …; assay: competition with 125I-labeled chimeric ING-1 on HT-29 cells
Source text: Vectors constructed according to Example 1 encoding human engineered ING-1 light and heavy chain genes, for example, pING1937 (low risk human engineered ING-1) and pING1944 (low plus moderate risk human engineered ING-1) were linearized by XbaI and used to transfect serum-free adapted CHO-K1 followed by selection of G418-resistant transfectants. Protein was purified from shake flask culture supernatants by passage over a protein A column. To evaluate the binding activity of the produced immunoglobulin polypeptides, competition binding assays with the human carcinoma cell line HT-29 were performed. This colorectal carcinoma cell line expresses a molecule known as Ep-CAM on its surface. Ep-CAM is recognized by immunoglobulin polypeptides having the antigen binding specificity of the mouse-human chimeric ING-1 antibody produced by cell line HB9812 as produced by ATCC.
HT-29 cells were grown to confluency (˜2×10⁵ cells/well) in 96 well plates. Mouse-human chimeric ING-1 was labeled with Na¹²⁵I (Iodo-gen®, Pierce). The competition conditions included in a 100 μl assay volume, 0.1 nM labeled mouse-human chimeric ING-1, 2-fold serial dilutions of unlabeled immunoglobulin polypeptides, for example, as produced by cells transfected with pING1937 and pING1944. […] Labeled cells were removed with NaOH and counted. […]

soluble human Ep-CAM = target: T2, soluble human Ep-CAM; assay: ELISA, soluble Ep-CAM coated at 0.25 ug/mL, detection with AP-goat anti-human IgG
[2] = target: T1, Ep-CAM on the surface of HT-29 human …; assay: competition binding on HT-29 cells (FIG. 16)
Procedure: HT-29 cells were grown to confluency (˜2×10⁵ cells/well) in 96 well plates. Mouse-human chimeric ING-1 was labeled with Na¹²⁵I (Iodo-gen®, Pierce). The competition conditions included in a 100 μl assay volume, 0.1 nM labeled mouse-human chimeric ING-1, 2-fold serial dilutions of unlabeled immunoglobulin polypeptides, for example, as produced by cells transfected with pING1937 and pING1944. The labeled and unlabeled immunoglobulin polypeptides were incubated with HT-29 cells at 4° C. for 5 hours followed by washing. Labeled cells were removed with NaOH and counted. Data analysis was performed using Ligand, [Munson and Redbard, […] 107: 220-239 (1980)].
Human engineered ING-1 modified at the low risk plus moderate risk positions was also evaluated using competition binding assays. No differences in binding between the mouse-human chimeric and the human engineered (low risk) ING-1 was observed.

[3] = target: T1, Ep-CAM on the surface of HT-29 human …; assay: competition with iodinated low risk ING-1 on HT-29 cells (FIG. 17)

| Binder | binding result [1] | binding result [3] | also measured |
| --- | --- | --- | --- |
| human engineered (low risk) ING-1 (antibody, human IgG1, kappa, It has 6 low risk changes in VL and 13 in VH; also called human engineered ING-1; ING-1(heMab)) VL: DIVMTQSALSNPVTLGESGSISCRSSKSLLHSNGITYLYWYLQKPGQSPQLLIYQMSNRASGVPDRFSSSGSGTDFTLKISRVEAEDVGVYYCAQNLELPRTFGQGTKLEMKRTVAAPSVFIFPPSDEQLKSGTASVVCLLNNFYPREAKVQWKVDNALQSGNSQESVTEQDSKDSTYSLSSTLTLSKADYEKHKVYACEVTHQGLSSPVTKSFNRGEC VH: not shown | binds |  | binding result (soluble human Ep-CAM): binds |
| human engineered (low plus moderate risk) ING-1 (antibody, human IgG1, kappa, IgG with human kappa and gamma-1 constant regions, built like pING1937; It has 10 low plus moderate risk changes in VL and 20 in VH; also called product of pING1944) VL: DIVMTQSPLSLPVTPGEPGSISCRSSKSLLHSNGITYLYWYLQKPGQSPQLLIYQMSNRASGVPDRFSSSGSGTDFTLKISRVEAEDVGVYYCAQNLELPRTFGQGTKLEMKRTVAAPSVFIFPPSDEQLKSGTASVVCLLNNFYPREAKVQWKVDNALQSGNSQESVTEQDSKDSTYSLSSTLTLSKADYEKHKVYACEVTHQGLSSPVTKSFNRGEC VH: not shown |  |  | binding result [2]: binds |

Continued, in another order:

| binding result [1] | binding result [3] | Binder | also measured |
| --- | --- | --- | --- |
|  | binds | modified ING-1 with low risk light chain and low plus moderate risk heavy chain (antibody, human IgG1, kappa, It is an IgG purified on protein A with human kappa and gamma-1 constant regions; also called combination of a low risk light chain with a low plus moderate risk heavy chain) VL: DIVMTQSALSNPVTLGESGSISCRSSKSLLHSNGITYLYWYLQKPGQSPQLLIYQMSNRASGVPDRFSSSGSGTDFTLKISRVEAEDVGVYYCAQNLELPRTFGQGTKLEMKRTVAAPSVFIFPPSDEQLKSGTASVVCLLNNFYPREAKVQWKVDNALQSGNSQESVTEQDSKDSTYSLSSTLTLSKADYEKHKVYACEVTHQGLSSPVTKSFNRGEC VH: not shown |  |
|  | binds | modified ING-1 with low plus moderate risk light chain and low risk heavy chain (antibody, human IgG1, kappa, It is an IgG purified on protein A with human kappa and gamma-1 constant regions; also called low risk heavy chain with a low plus moderate risk light chain) VL: DIVMTQSPLSLPVTPGEPGSISCRSSKSLLHSNGITYLYWYLQKPGQSPQLLIYQMSNRASGVPDRFSSSGSGTDFTLKISRVEAEDVGVYYCAQNLELPRTFGQGTKLEMKRTVAAPSVFIFPPSDEQLKSGTASVVCLLNNFYPREAKVQWKVDNALQSGNSQESVTEQDSKDSTYSLSSTLTLSKADYEKHKVYACEVTHQGLSSPVTKSFNRGEC VH: not shown |  |
| binds |  | mouse-human chimeric ING-1 antibody (as produced by cell line HB9812, ATCC) (antibody, human IgG1, kappa, V domains shown, The labelled tracer form was iodinated with Na125I) VH: QIQLVQSGPELKKPGETVKISCKASGYTFTKYGMNWVKQAPGKGLKWMGWINTYTEEPTYGDDFKGRFAFSLETSASTANLQINNLKSEDTATYFCARFGSAVDYWGQGTSVTVSS VL: DIVMTQAAFSNPVTLGTSGSISCRSSKSLLHSNGITYLYWYLQKPGQSPQLLIYQMSNLASGVPDRFSSSGSGTDFTLRISRVEAEDVGVYYCAQNLELPRTFGGGTKLEMKR |  |
